Drawing on US20090175847A1, this text covers relation between recognition of Aβ(20-42) globulomer and the respective Aβ form for 1 molecule.

In assay [1] the target is Aβ(20-42) globulomer (human). Description: dot blot densitometry; antigen: Aβ(20-42) globulomer (the reference of the ratio).
In assay [2] the target is Aβ(1-42) globulomer (human) (UniProt P05067). Description: dot blot densitometry; antigen: Aβ(1-42) globulomer.
Assay [3] deals with Aβ(1-42) monomer (human). Description: dot blot densitometry; antigen: Aβ(1-42) monomer, 0.1% NH4OH; the dot is read as a thousands separator (no dot in column 1 of panel A).
Chain of Aβ(1-42) monomer (human) (peptide, as listed by the source): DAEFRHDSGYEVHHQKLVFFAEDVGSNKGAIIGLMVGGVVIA
Assay [4] concerns the target Aβ(1-42) fibrils (human) (UniProt P05067). Nature of the assay: dot blot densitometry; antigen: Aβ(1-42) fibril; the dot is read as a thousands separator.
The target in assay [5] is Aβ(1-40) monomer (human). Description: dot blot densitometry; antigen: Aβ(1-40) monomer, 0.1% NH4OH; the dot is read as a thousands separator.
Chain of Aβ(1-40) monomer (human) (peptide, as listed by the source): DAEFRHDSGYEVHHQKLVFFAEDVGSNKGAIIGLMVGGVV

Chain of Aβ(20-42) globulomer (human) (peptide, as listed by the source): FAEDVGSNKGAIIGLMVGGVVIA

B1: humanized antibody 5F7hum8 (antibody, IgG1, V domains shown)
VH: EVQLVQSGAEVKKPGASVKVSCKASGYTFTTFYIHWVRQAPGQGLEWIGMIGPGSGNTYYNEMFKDKATLTVDTSTSTAYMELSSLRSEDTAVYYCARAKSARAAWFAYWGQGTLVTVSS
VL: DIVMTQSPLSLPVTPGEPASISCRSSQSVVQSNGNTYLEWYLQKPGQSPQLLIYKVSNRFSGVPDRFSGSGSGTDFTLKISRVEAEDVGVYYCFQGSHVPPTFGGGTKVEIKR
B1: the relation between recognition of Aβ(20-42) globulomer and the respective Aβ form was 1 in assay [1]; 17 in assay [2]; 10400 in assay [3]; greater than 10000 in assay [4]; greater than 10000 in assay [5].
